A short description of this series: label from the status in PepcDB records.
In the case of “MRELNRLSEEITHILAAGEVVERPASCLKEVIENSIDAGASLIDIKLEKGGIKKIEVYDNGKGIHSDDIEYVFERHTTSKIKSVDDIFKITTMGFRGEALCAISSVSKVTLISRHYEQEQGCKVEVEGGKVLSKTIYPFEKGTRITIEDLFYNTPARLKFLKSPSAEQKYCIEVVEKIAICYPEISFRMQVDNKRQLFTPGDSKVESAIASVFGSEILKNLIDFSHQEEGLKVWGFFVNPVLSKSTRSGYHFYVNRRFIRSKLLSTCIDEAFKNSILTGRFPIVFLFIEINPIDIDVNVHPAKLEIKFKDERYVYNTVYKTVSSTLQSEKMIPKPTLDNLYLPQSVQDVKMVRNLWSYTQEQQSKEKAFQEDFNEFLKIEEQLDFSKVEVGKESKDVITVFSEEFNVETYKIVGYAFDTYIIVQKEDSLYLIDQHAVHERRLFELLKEEIFRNKIQRQILLSPIVIELPISQKEFALENVHIFEKLGFEIDDFGKNEIVVRTYPLLFEGAVDKFFILDIIEMIYNESVEKGITHFSEELLKKIACRAAVKGNMNISDLEKEEIVKLVLVEKKIFNCPHGRPVVIEIQKREIEKMFKRIV”, the protein production result is recorded as “failed”.
The entry for “MRERTEARRRRIEEVLRRRQPDLTVLLENVHKPHNLSAILRTCDAVGVLEAHAVNPTGGVPTFNETSGGSHKWVYLRVHPDLHEAFRFLKERGFTVYATALREDARDFREVDYTKPTAVLFGAEKWGVSEEALALADGAIKIPMLGMVQSLNVSVAAAVILFEAQRQRLKAGLYDRPRLDPELYQKVLADWLRK” is “not failed”; for “MREVNEGASAYPGQRATGESIERGGGGLSVSDLLAKVMTAAAPQPTGSGTESGPGAGPTAGPSLDVDGLAVAVAATAGRYLPGGHLSPDSDFFDAGGTSVHAVELVAELERELGMEIALDDVFADARPRTLARRWLSAGGAPAAHSATPATPEPTAAGVAATGVTAIGATAAGAAVAGATAAGVAATPGLLPLSAAGTRPAPAPSGLPVPSPRTPPAVAATPPPGSGDAPYSTARREDLDQILADLALADRLPWTGAPEPLPPRRILLTGATGFLGSHMLLDLLRHSDAHVYCLVRAADEEAATARLGQALKGYELPWSSEVRRRVTVLPGDIRHPRLGLSDDLWNTLAHELDSVVGVAAAVDFLRGYPSLRQSNVLGALTLAELAATGRPKPLHHISSIAVFNEVGITAMGEDDPLARVDRLVAGYDQTKWTAEVALRRARDHGLLVTAMRPGGIGGHTRTGAYNPQDLSSGLISAFGRFRTVPAFRYLNAAPVDWVSRVAVGVICEPDAWGYDYNLTGVPNTLDDVVQDMALGGMHVRVQDWDEWRTDALARLEADPVPELAFLTRVLRSPTALKLCEATLKGPAAHDDRTAALVEALGLGPAARYDAQAQLRTFERLARDGLARLPHKDDQPYLWFSERTEGGVGPVGAPADTPCSMALTLSIASMYQLVKERRVDVSGELVCAAVHPEPLTVERGDVWIRPEEGIPEQHGMRHQLLRYRLELRDTDGGHWWLEGHKYARARRDVWRQTRALTVEIGRAGEPARLTGEVVVPADSYVRDQIDGIKVDPRLTSQEKRAAKLTWLAWFGLEVGRGLLGPFARVAADLLDLRRNPTLTERNR” it is “failed”.
The entry for “MREVSLRIDRYLVNTRITPNQLTYLMTVCGVLAAPALLVPGIWGAVLGVVAVQLYLLLDCVDGEIARWRKQYSLGGVYLDRVGAYLTDAAVLVGLGLRAADIWGTGRIDWLWAFLGTLAALGAILIKAETDLVGVARHQNGMPPVKEAASEIRSSGMALARRAAGALKFHRLILGIEATLLILVLAIVDQARGDLFFTRLGTAVLAGIALLQTLLHLVSILASSRLK” is “failed”; for “MREYNNPSDFKSFHDFVASYMKTYSRRLEIGTFRHHKSCMRKFKEYCEGLQFHELTEDFLRDYLIYMKKTLCNADSTAQRNLSTIKIYVSAAIKKGYMENDPFKDFGVKRLEHHHHHH” it is “not failed”.
With “MRFSRARTEEVLRALVHEIRAERLTFMAGSIAYHAFLSILPLLLLVLTFVQRTENVTLRASIVGIMEAVLTTQASGIIQQGLTEADASVSALGVGFLLWGSLRIFRGLDTAFSDIYETGASNTFLDQLGDGLVLLVTVAVAILSASALGSVLPETGSGPLWTVASGLVRAAGLFVVFYPMYYIFPDTDVSPLEAVPGVAFAAIGLTVAQVLFTAFKSGSTGGNIIASILVLLSWLYIIGLVILLGAAINAVLSNRSADVDIDPVVGEHSQQNTIRTTTMSREALLAELETLADRFQQGQGTITVEIADERTDIDCPETATVDRSSDVFGLDQSVALTLRWWPNEK” the entry was “failed”.
As for “MRFTNTILMTTFTALLAVALVAGCASKKKDETDPFFSKWQSLASNSTGFSPPKVVRDVKPKTLLRQEEVTAKQEEQKRPLPQMPVTLKLHNVDVGVALRSLAAAANTSIIVSPGVKGTASINVNRVPWEDVFKGILASNALDFAWRGELIQVMTLADKKAEVERELLETQRMAQQLKGRKVGPLVTSVIEVRYAEAAELKKNLEGFLSKDEQNKPVGAVVVDTHTNSLIVQAVEDDLSKIITLVNNLDKPRAQILLKAHIVEATRDTARDLGIQWGGVGRSGNMGDGNRMWVTPGGSGPTKPTDPQAGGGVPVIPPGGLSGQGFGMNFPVNKAGKTAMGSLGLMFGTIGGNMLEVQLSALQDNGKLNILSSPSISTLDNQMAFTENGEKVPYVSTNAQGDREVKFEDAVLRLEITPHVIDESNLKLKVQVKKDEVDLTRTVEGNPFIIKKQTETTLIVQDGETVVISGLTKERSSTRRQGLPYLQDVEGIGALFGNDSKANKLEDVLIFITPAILPYREETSVN”, the protein production entry is “failed”.
With “MRGAESLVTLNHKILRPCRKLLIRITKSCPRRHNRHLKLKKASSSSSTASGNKVTKVVALFFLSFHKKKQKKEKMKRLNELRSFSHAVNDQKKKAPKQESSKKVFPSRLTMSWLGQGKGNNNNTQEVPQEHDARRDSTSAFIP” the entry was “failed”.
The entry for “MRGIAIIFIVLGHSIYNSGEGFPVLLENLLRGGTALFVFISGYFFHRIFYKDFDYGKFMKNKVQNVLYPFLFVSIVGLFCLSLRWVFMEHQSLEQVLLSIFYTVRNGYILYPHWYIPFIMAVFLFSPVFLWFIRCSQQMRWTLFVLSCVVAILLHRPIGNVNFIHSVVYYLPFYLIGILYSQDEHIVTRYGSILSALAGIFLVVSLVEQSYIVQHVGNYHKAPFEYNGIDWQFIQKLSLCVLVLNFCDWLSQRSRLPWLIETAEMSFAIFFIHPLFDMLFNTTATIFRYRFPPDSWVTSILFSFGIFLFLMVSSMMTARLIKKRLGNRSRLFIGW” is “failed”; for “MRGILRMTVLAAAVFGVAGNALAEDWKLAKDEDGVKVYLSSVQGSKYKAYRGVTDIKADVATIEALQEDVKGSCKWIHACAEMKLLKQEGADAWTYSKIDMPWPVTGRDVVIHVTTEKTADGTVIRHLKADPTYIPEEKGQIRVPKLVGEWKLQPKGQGVTEVTYQVETEPGGSIPSWLANSFVVDAPLNTLKGLRSAAEKR” it is “failed”; for “MRGKQSHMSCEHYSNNCLVRFECCSSLYPCRLCHDKAEAHRANRYEVSQIVCGTCNLLQPKTQTCLQCLAAVSKYFCSKCNLWDSSDDQIFHCDGCNVCRRGDPKSSFHCDICQTCLVTRGPRDHTHVENTASGNCPICAEEMSESMEVLVLLRCGHSLHERCFNEFIKETYTCPMCSKPIGDTSIINRKVECLLGMEPPSPEQSPKNIAKCTNCNNLSKCGAIQNKCPFCGLRGVVDAAQEKNVKSQCLKPEE” it is “failed”.
Consider “MRGLAACYSEHAIKVSDTYCSGPSNHSYISPTLPPSIPDTVTTTYRSNLPSSDKPVSVSLTWSDNLTVVISTPPKSYSVSLRKPKGSRKLTSSSGSLNAEILWDLSEAEYENNGPEPIRRFFVVVVVNSEITLGVGDVDHERDTSSSSSWRVSKTERFSGTCWLTTKAQFSDVGRKHEIQIQCGGGGGGGGEEGYLWKVKSPETMSVYVDKRKVFSVKKLKWNFRGNQTMFFDGMLIDMMWDLHDWFYKETLSSVSTSSSSKTASSSSSSSTSSSTPPCAVFMFRRRSGLDSRLWIDEDEQESEMKKNIGSRDEKHSFSLIICASKK”, for which the protein production entry is reported as “failed”.
The entry for “MRGLSLSPVVLPEVRREAGVELRKARLEDVDAIYWLIRYWAEKGLMLVRSHSHLYENIRDFWVLEDEDGQIVGTVALHVLWRDLAEIRGLAVHPTRQGQGLGRWLVLGAEREARDLGLPRVFAWTLQVNFFRALGYRVTSR” is “failed”.
With “MRGLSRNSGAAAIFAILLILAVHNWSVAVSSQSTEFAGDFPPFETECRGTIAECSVSAALGDGGDLFYGGGEMGEEFEMDSEINRRILATRRYISYGALRRNTIPCSRRGASYYNCRRGAQANPYSRGCSAITRCRRS” the entry was “failed”; with “MRGPGSASVRGYGQCKDTLHTSSPFHEAPASVRRPRTTGRVHTLGIRAPPPPRSQPEFLFSGNPFAPVSSVQRDAARRVSPRIPSLDQASRRPVAKLVVPGGNGFIGTEICRVAVQNGHEVAAFGRTGRPALTPARHPWVQDVEWRAADVFAPDAWRDLLDGADAVVHTIATIREHPDRNVTFDRVNAESALRAAEAAVAADVGAVVFLSVRDKPPLVPYAFLSAKRRAERALREDHPSLRTVTLCPNLVYGARKTGTPTLAAVLNQAQGMRPHPYATAEGRPLPVEFVAAAAVQAAVTSTMEGTLTVPQIDDIGRTSGLVDPNAASTPSLAPLLVGLGGTALGAWLLRRWRAS”, “failed”.
Take “MRGPLSRPVCMKLGIDFGTSNSAAAAIVDGQVVPVRFGQALQFRTTVYFPETMRDPDDFSLTPALEYEVERLIDSGRRDALAAGRTPNNDSLRRDAIRIVRRQWMEEQVREPRSSAALLQNAVYGDEALDAYFLEGEGSLVQSPKSMLGYNLHPRARQTMTGIATHVLEHIRLTASRQFDINIRHATLGRPVQFRSSIGEAGNAQALEILQTAAIAAGFDSVDFLEEPAAAAMHYHVSHDSRHDTVVVDIGGGTTDVAHASVGGSAAPQVHRAWGIARGGTDIDLALSLAAYMPLFGRGITRVPTHHYVEAAMVQDMTRQREFRLHKYQDVPAPFDRRLQALQDTGNTARLYRGVEACKIALSELDRHQDALDFIERGLGVDVQAGALVASASNYLDELEGLLAQVRTEMATAPATVFLTGGMSRAGYIRDTVAAAFPESRLVHGDPSFGVVQGLAWAAAQDARLSDG”: the protein production result was “failed”.
With “MRGSHHHHHHTDPALRAATLLQLHFAFNGPFGDAMAEQLKPLAESINQEPGFLWKVWTESEKNHEAGGIYLFTDEKSALAYLEKHTARLKNLGVEEVVAKVFDVNEPLSQINQAKLAGLCGR” the entry was “not failed”; with “MRGYVLGLLALNLLTLIWGTTFVVVKGAVEGMAPSLLILLRFGVAALFFLPWLFRLPVGVFGPGMELAFWLFVGYASQTLGLAHTSASRSAFITALSVVLVPLLLRLAGREVGPAFLAAFLALAGVGLLSYDPYQPPFNVGDLWTFLTALAYALYIVRLEVHARAFPSLPLTAVQVLGTALFALPWVLAEGGAWGPVAWGAVLYLGVVATALTTWLQTWGQRHVPAPQAAILYTLEPVWAAFFAYLALGERLSPSGLLGALLVLLATLLAIRRSPA”, “failed”.
As to “MRHFGPISGIATFKDTYVATAGYDNQVILWDARTRTPIQRVLHDHLANQCAFNAAGTLLVSASSDYTARVWEVPSLRLKTVLIGHDDDIEMAAFSPDGQTIATCSRDHSIRLFNLSGQTLRILHGHTADVISVCWSADGQTLVSSSDDGSIRRWDANTGQQLETIDLGGVETDTVALSREGIIFAGDDEGKISIISPRGTLLQPAHSAGIKRIIWDDSQRLLISLSYDRSVMLWHLKQDGTLVKTAETSLPSIIWPRSCALLGSHRIAFVTFGSRYATWDFATQTWDLSGIEPAVSLNAVAVVGEDVYSIGDAGILHINGQPSIKAGSLCNFLLPFGDSVLTGGQMGTVFDARTGATLYQHRSPLNCGTTFIKDGALHAAIGTYTGEALIFCLDQQQPRFVTQVRMHENAIKGIAADETYIFSVCATAAAAFFRIADFGLETYLDKAHERISNGCTQIQGGFASIGRDLKLRLWRDGASEVFDTPHSHSIKCIAISRDRSMIATGSYGGTVAVFDLKKRVWASVEKPTASGISCLIHDASGEGFLASAYDGRIYPITPRAAVQSARP”, the protein production entry is recorded as “failed”.

Values taken from a protein production outcome set (Wang et al. 2014).
